The source of these data is US8975044B2, “Polynucleotides encoding for frizzled-binding agents and uses thereof” (OncoMed Pharmaceuticals, Inc., priority 2008, dated 2015).

For assay [1], the system named is MMTV-WNT1 tumor derived cells. Nature of the assay: MMTV-WNT1 tumor growth. The note with it: 10 mg/kg intra-peritoneal twice weekly; p=0.002. It is filed as in vivo, NOD/SCID mice. The procedure: Female NOD/SCID mice were injected at age 5-7 weeks with 50,000 mouse mammary tumor virus (MMTV)-WNT1 tumor derived cells in the upper right mammary fat pad. […] Tumors from these mice were dissociated and these dissociated tumor cells used for tumor propagation purposes. Mice with tumor cells implanted in the mammary fat pad were monitored twice a week. Once tumors were palpable, tumors were measured twice weekly and tumor volume was determined using the formula ½(a×b^2); where a=length, and b=breadth. Data are expressed as mean and mean±S.E.M. Group means were compared using Student's two-tailed, unpaired t test. […] On day 19, mice with average tumor volume of 44 mm^3 were randomized into 2 groups of 10 animals each. Animals were injected with either control antibody, or 18R5 IgG antibody (10 mg/kg). Administration of the antibodies was performed via injection into the intra-peritoneal cavity, twice weekly.

The test system of assay [2] is Wnt signaling. The experiment in a line: Inhibition of Wnt3a-induced Super Top Flash reporter activity in STF-293 cells. The class given is cell-based, human. The note with it: for IC50: Wnt3a-conditioned medium, 20-0.0003 μg/ml, triplicate. The protocol:
STF cells are Human Embryonic Kidney (HEK)-293 cells stably transfected with the Super Top Flash (STF) reporter cassette in which the expression of the Luciferase (Luc) reporter gene is regulated by multiple copies of the TCF binding site upstream of a minimal promoter. A low basal Luc expression can be induced 30-60 fold in response to Wnt3a, providing a large window to assess the inhibitory activity of the anti-Fzd Abs.
To assess the mAbs, STF-293 cells were grown in DMEM-10% FBS. On day 1, 10,000 cells were plated per well in 96-well Optical Bottom White plates (Nunc #165306). The cells were incubated O.N. at 37° C. and 5% CO2. On day 2, the Abs to be tested were diluted to a final concentration of […] using culture medium. Seven 5-fold serial dilutions were performed. The STF-293 cells culture medium was replaced with a mixture containing 50 μA Ab dilution, 25 μA Wnt3a-conditioned medium from Wnt3a stable L-cells and 25 μA DMEM-10% FBS. For each Ab, the final concentrations tested were 20, 4, 0.8, 0.16, 0.03, 0.006, 0.0013, 0.0003 μg/ml. Each Ab concentration was tested in triplicate. A human anti-hapten Ab, LZ1, was used as negative control Ab. A non-Wnt3a-conditioned medium from parental L-cells was used as negative control inducer. The plates were returned to the incubator. Luciferase activity was measured on day 3, using Promega Steady Glo kit (VWR #PAE2550-A) according to the manufacturer specifications. The results were expressed in photons per sec. GraphPad Prism software was used to graph and analyze the data. Luciferase activities were plotted as a function of Ab concentration to establish dose-response curves. A non-linear regression was applied to the numbers to fit the curve and calculate IC50s.

Assay [3] has as its system Muc16. The experiment in a line: Muc16 immunohistochemistry on treated OMP-PN13 tumors. The note with it: 3 doses of 10 mg/kg IP over 12 days; vs LZ1. The class given is in vivo, NOD/SCID mice. The procedure:
Frozen OMP-PN13 tumor cells that have been passaged twice in mice were obtained from Oncomed's tumor bank. They were thawed and injected subcutaneously into the left flank of NOD/SCID mice immediately following thawing. ˜ 25,000 viable cells were injected per animal. The mice were monitored weekly for tumor growth. After their onset, the size of the tumors was measured once weekly by caliper. 200-300 mm^3 tumor-bearing mice were dispatched in treatment groups that each contained 5 animals. […] Ab treatment was initiated the day after randomization. LZ1 was used as the negative control Ab. 3 doses of 10 mg/kg of Ab were administered via intra-peritoneal injection over a 12-day period. Mice were euthanized 24 hours after the last injection. Tumor, duodenum and liver were harvested.
Tumor tissues were fixed in formalin for paraffin embedding and sectioning. Muc16 detection was performed by immunohistochemical (1HC) to monitor the appearance of Mucin-producing cells. Mucins are specific for a subtype of differentiated cells in the pancreas, and as such are used as differentiation markers in the tumor model.
Formalin-fixed, paraffin-embedded (FFPE) sections were de-parrafinized. The slides were first de-parrafinized by sequential treatment with xylene twice for 5 minutes each. […]

B1: 18R5: human anti-FZD antibody; VH SEQ ID NO:10 (as 18R8), VL SEQ ID NO:14; binds FZD1, 2, 5, 7, 8 (antibody, V domains shown)
VH: EVQLVESGGGLVQPGGSLRLSCAASGFTFSHYTLSWVRQAPGKGLEWVSVISGDGSYTYYADSVKGRFTISSDNSKNTLYLQMNSLRAEDTAVYYCARNFIKYVFANWGQGTLVTVSS
VL: DIELTQPPSVSVAPGQTARISCSGDNIGSFYVHWYQQKPGQAPVLVIYDKSNRPSGIPERFSGSNSGNTATLTISGTQAEDEADYYCQSYANTLSLVFGGGTKLTVLG
modifications: 18R5/18R8 heavy chain variable region (VH); 18R5 light chain variable region (VL)
In general, IC50 refers to the concentration that inhibits the measured activity by half. In the case of B1, the “tumor growth compared to control antibody” value in assay [1] is reported as “completely abolished tumor growth”. Besides, 2.73 nM corresponded to half-maximal inhibition in assay [2] (IC50). For the same molecule, the Muc16 staining entry in assay [3] is given as “higher levels of staining”.

B2: 18R8: human anti-FZD antibody from phage display; VH SEQ ID NO:10, VL SEQ ID NO:12; binds FZD1, 2, 5, 7, 8 (antibody, V domains shown)
VH: B1 VH
VL: DIELTQPPSVSVAPGQTARISCSGDKLGKKYASWYQQKPGQAPVLVIYEKDNRPSGIPERFSGSNSGNTATLTISGTQAEDEADYYCSSFAGNSLEVFGGGTKLTVLG
modifications: 18R5/18R8 heavy chain variable region (VH); 18R8 light chain variable region (VL)
Turning to B2, the “tumor growth compared to control antibody” value in assay [1] is reported as “virtually eliminated”.

B3: 44R24: anti-FZD5/8 IgG antibody, VH SEQ ID NO:85, VL SEQ ID NO:86; ATCC deposit no. PTA-10311 (antibody, V domains shown)
VH: EVQLVESGGGLVQPGGSLRLSCAASGFTFSSYYITWVRQAPGKGLEWVSTISYSSSNTYYADSVKGRFTISRDNSKNTLYLQMNSLRAEDTAVYYCARSIVFDYWGQGTLVTVSS
VL: DIELTQPPSVSVAPGQTARISCSGDALGNRYVYWYQQKPGQAPVLVIPSGIPERFSGSNSGNTATLTISGTQAEDEADYYCGSWDTRPYPKYVFGGGTKLTVLG
modifications: 44R24 VH; 44R24 VL
notes: ATCC deposit no; PTA-10311
Regarding B3, in assay [2], the “IC50 relative to 18R5's” value came to 13 fold and the 50% inhibitory concentration (IC50) was found to be 34.4 nM. Also, the Muc16 staining result in assay [3] is listed as “slightly higher than in the LZ1-treated tumors”.
